This data set has as its target T1, Hsmar1-Prime transposase (Hsmar1-P) (Homo sapiens, UniProt Q53H47 SEQ:1-343).
T1 chain: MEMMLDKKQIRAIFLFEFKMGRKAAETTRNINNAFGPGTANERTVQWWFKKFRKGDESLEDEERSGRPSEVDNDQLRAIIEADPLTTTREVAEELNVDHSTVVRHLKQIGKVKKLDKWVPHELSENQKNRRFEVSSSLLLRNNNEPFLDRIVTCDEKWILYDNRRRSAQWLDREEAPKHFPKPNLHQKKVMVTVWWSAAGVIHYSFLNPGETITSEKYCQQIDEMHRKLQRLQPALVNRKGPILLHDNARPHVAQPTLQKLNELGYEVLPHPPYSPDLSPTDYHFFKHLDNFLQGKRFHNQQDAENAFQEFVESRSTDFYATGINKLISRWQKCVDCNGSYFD
The experiment in a line: cell_activity; HeLa cells, donor pHsmar1/neo plus helper; excision with 3 bp footprint, integration at TA. As to conditions: tags: expressed from pFV-4a helper plasmid; chain copies: 2; 30 bp terminal inverted repeats in plasmid donor.

B1: Hsmar1 transposon inverted repeats (left IR / right IR, flanking SV40-neo in pHsmar1/neo) (dsDNA)
DNA 1: TTAGGTTGGTGCAAAAGTAATTGCGGTTTT
DNA 2: AAAACCGCAATTACTTTTGCACCAACCTAA
Regarding B1, the activity is ~20 fold increase in G418-resistant colonies.
